Target: the molecule itself
Test: SEC

Protein	stoichiometry N
CUB1-EGF-CUB2 fragment of C1s (domain or fragment, N-linked carbohydrate at one site (density seen in the crystals)) EPTMYGEILSPNYPQAYPSEVEKSWDIEVPEGYGIHLYFTHLDIELSENCAYDSVQIISGDTEEGRLCGQRSSNNPHSPIVEEFQVPYNKLQVIFKSDFSNEERFTGFAAYYVATDINECTDFVDVPCSHFCNNFIGGYFCSCPPEYFLHDDMKNCGVNCSGDVFTALIGEIASPNYPKPYPENSRCEYQIRLEKGFQVVVTLRREDFDVEAADSAGNCLDSLVFVAGDRQFGPYCGHGFPGPLNIETKSNALDIIFQTDLTGQKKGWKLRYHGDPM	2
CUB1-EGF-CUB2 fragment of C1r (domain or fragment, UniProt P00736 18-307, looked up, N-linked carbohydrate at two sites (density seen in the crystals)) SIPIPQKLFGEVTSPLFPKPYPNNFETTTVITVPTGYRVKLVFQQFDLEPSEGCFYDYVKISADKKSLGRFCGQLGSPLGNPPGKKEFMSQGNKMLLTFHTDFSNEENGTIMFYKGFLAYYQAVDLDECASRSKSGEEDPQPQCQHLCHNYVGGYFCSCRPGYELQEDTHSCQAECSSELYTEASGYISSLEYPRSYPPDLRCNYSIRVERGLTLHLKFLEPFDIDDHQQVHCPYDQLQIYANGKNIGEFCGKQRPPDLDTSSNAVDLLFFTDESGDSRGWKLRYTTEII	2
